Test results as given in paper PMC2808332, “Expanding the Substantial Interactome of NEMO Using Protein Microarrays” (PLoS ONE, 2010).

B1: Acyl-Coenzyme A binding domain containing 6 (natural protein, human, UniProt Q9BR61 1-282, looked up)
chain: MASSFLPAGAITGDSGGELSSGDDSGEVEFPHSPEIEETSCLAELFEKAAAHLQGLIQVASREQLLYLYARYKQVKVGNCNTPKPSFFDFEGKQKWEAWKALGDSSPSQAMQEYIAVVKKLDPGWNPQIPEKKGKEANTGFGGPVISSLYHEETIREEDKNIFDYCRENNIDHITKAIKSKNVDVNVKDEEGRALLHWACDRGHKELVTVLLQHRADINCQDNEGQTALHYASACEFLDIVELLLQSGADPTLRDQDGCLPEEVTGCKTVSLVLQRHTTGKA
notes: also called ACBD6; source: insect cell/baculovirus, purified, spotted (Invitrogen Protoarray v4.0)
B2: TBC1 domain family, member 7 (natural protein, human, UniProt Q9P0N9-1 1-293, looked up)
chain: MTEDSQRNFRSVYYEKVGFRGVEEKKSLEILLKDDRLDTEKLCTFSQRFPLPSMYRALVWKVLLGILPPHHESHAKVMMYRKEQYLDVLHALKVVRFVSDATPQAEVYLRMYQLESGKLPRSPSFPLEPDDEVFLAIAKAMEEMVEDSVDCYWITRRFVNQLNTKYRDSLPQLPKAFEQYLNLEDGRLLTHLRMCSAAPKLPYDLWFKRCFAGCLPESSLQRVWDKVVSGSCKILVFVAVEILLTFKIKVMALNSAEKITKFLENIPQDSSDAIVSKAIDLWHKHCGTPVHSS
notes: TBC1 domain family, member 7, human; also called TBC1D7; source: insect cell/baculovirus, purified, spotted (Invitrogen Protoarray v4.0)
B3: AMME chromosomal region gene 1-like (natural protein, human, UniProt Q6DCA0 1-310, looked up)
chain: MGKRRCVPPLEPKLAAGCCGVKKPKLSGSGTHSHGNQSTTVPGSSSGPLQNHQHVDSSSGRENVSDLTLGPGNSPITRMNPASGALSPLPRPNGTANTTKNLVVTAEMCCYCFDVLYCHLYGFPQPRLPRFTNDPYPLFVTWKTGRDKRLRGCIGTFSAMNLHSGLREYTLTSALKDSRFPPLTREELPKLFCSVSLLTNFEDASDYLDWEVGVHGIRIEFINEKGVKRTATYLPEVAKEQDWDQIQTIDSLLRKGGFKAPITSEFRKTIKLTRYRSEKVTISYAEYIASRQHCFQNGTLHAPPLYNHYS
notes: AMME chromosomal region gene 1-like, human; also called AMMECR1L; source: insect cell/baculovirus, purified, spotted (Invitrogen Protoarray v4.0)
B4: Leucine zipper and CTNNBIP1 domain containing (natural protein, human, UniProt Q8WZA0-1 1-190, looked up)
chain: MASRGKTETSKLKQNLEEQLDRLMQQLQDLEECREELDTDEYEETKKETLEQLSEFNDSLKKIMSGNMTLVDELSGMQLAIQAAISQAFKTPEVIRLFAKKQPGQLRTRLAEMDRDLMVGKLERDLYTQQKVEILTALRKLGEKLTADDEAFLSANAGAILSQFEKVSTDLGSGDKILALASFEVEKTKK
notes: Leucine zipper and CTNNBIP1 domain containing, human; also called LZIC; source: insect cell/baculovirus, purified, spotted (Invitrogen Protoarray v4.0)
B5: Cyclic AMP phosphoprotein, 19 kDa (natural protein, human, UniProt P56211-1 1-112, looked up)
chain: MSAEVPEAASAEEQKEMEDKVTSPEKAEEAKLKARYPHLGQKPGGSDFLRKRLQKGQKYFDSGDYNMAKAKMKNKQLPTAAPDKTEVTGDHIPTPQDLPQRKPSLVASKLAG
notes: Cyclic AMP phosphoprotein, 19 kDa, human; also called ARPP-19; source: insect cell/baculovirus, purified, spotted (Invitrogen Protoarray v4.0)
B6: NOTCH-regulated ankyrin repeat protein (natural protein, human, UniProt Q7Z6K4 1-114, looked up)
chain: MSQAELSTCSAPQTQRIFQEAVRKGNTQELQSLLQNMTNCEFNVNSFGPEGQTALHQSVIDGNLELVKLLVKFGADIRLANRDGWSALHIAAFGGHQDIVLYLITKAKYAASGR
notes: NOTCH-regulated ankyrin repeat protein, human; also called NRARP; source: insect cell/baculovirus, purified, spotted (Invitrogen Protoarray v4.0)
B7: CUE domain containing 1 (natural protein, human, UniProt Q9NWM3 1-386, looked up)
chain: MTSLFRRSSSGSGGGGTAGARGGGGGTAAPQELNNSRPARQVRRLEFNQAMDDFKTMFPNMDYDIIECVLRANSGAVDATIDQLLQMNLEGGGSSGGVYEDSSDSEDSIPPEILERTLEPDSSDEEPPPVYSPPAYHMHVFDRPYPLAPPTPPPRIDALGSGAPTSQRRYRNWNPPLLGNLPDDFLRILPQQLDSIQGNAGGPKPGSGEGCPPAMAGPGPGDQESRWKQYLEDERIALFLQNEEFMKELQRNRDFLLALERDRLKYESQKSKSSSVAVGNDFGFSSPVPGTGDANPAVSEDALFRDKLKHMGKSTRRKLFELARAFSEKTKMRKSKRKHLLKHQSLGAAASTANLLDDVEGHACDEDFRGRRQEAPKVEEGLREGQ
notes: CUE domain containing 1, human; also called CUEDC1; source: insect cell/baculovirus, purified, spotted (Invitrogen Protoarray v4.0)
B8: Calbindin D28K (natural protein, human, UniProt P05937-1 1-261, looked up)
chain: MAESHLQSSLITASQFFEIWLHFDADGSGYLEGKELQNLIQELQQARKKAGLELSPEMKTFVDQYGQRDDGKIGIVELAHVLPTEENFLLLFRCQQLKSCEEFMKTWRKYDTDHSGFIETEELKNFLKDLLEKANKTVDDTKLAEYTDLMLKLFDSNNDGKLELTEMARLLPVQENFLLKFQGIKMCGKEFNKAFELYDQDGNGYIDENELDALLKDLCEKNKQDLDINNITTYKKNIMALSDGGKLYRTDLALILCAGDN
notes: also called CALB1; source: insect cell/baculovirus, purified, spotted (Invitrogen Protoarray v4.0)
B9: PIM2 (printed gene product: Pediatric index of mortality 2) (natural protein)
chain: not shown
notes: source: insect cell/baculovirus, purified, spotted (Invitrogen Protoarray v4.0)
B10: Prefoldin 5, transcript variant 1 (natural protein, human, UniProt Q99471-1 1-154, looked up)
chain: MAQSINITELNLPQLEMLKNQLDQEVEFLSTSIAQLKVVQTKYVEAKDCLNVLNKSNEGKELLVPLTSSMYVPGKLHDVEHVLIDVGTGYYVEKTAEDAKDFFKRKIDFLTKQMEKIQPALQEKHAMKQAVMEMMSQKIQQLTALGAAQATAKA
notes: Prefoldin 5, human; also called PFDN5; source: insect cell/baculovirus, purified, spotted (Invitrogen Protoarray v4.0)
B11: G protein, γ-transducing activity polypeptide 1 (natural protein, human, UniProt P63211 1-74, looked up)
chain: MPVINIEDLTEKDKLKMEVDQLKKEVTLERMLVSKCCEEVRDYVEERSGEDPLVKGIPEDKNPFKELKGGCVIS
notes: G protein, γ-transducing activity polypeptide 1, human; also called GNGT1; source: insect cell/baculovirus, purified, spotted (Invitrogen Protoarray v4.0)
B12: Centaurin, alpha 2 (natural protein, human, UniProt Q9NPF8 1-381, looked up)
chain: MGDRERNKKRLLELLRAPDTGNAHCADCGAADPDWASYKLGIFICLNCCGVHRNFPDISRVKSVRLDFWDDSIVEFMIHNGNLRVKAKFEARVPAFYYIPQANDCLVLKEQWIRAKYERREFMADGETISLPGNREGFLWKRGRDNSQFLRRKFVLLAREGLLKYFTKEQGKSPKAVISIKDLNATFQTEKIGHPHGLQITYRRDGHTRNLFVYHESGKEIVDWFNALRAARLQYLKMAFPELPESELVPFLTRNYLKQGFMEKTGPKQKEPFKKRWFALDCHERRLLYYKNPLDAFEQGQVFLGNKEQGYEAYEDLPKGIRGNRWKAGLTIVTPERRFVLTCPSEKEQQEWLESLRGVLSSPLTPLNRLTASTESGRSSR
notes: Centaurin, alpha 2, human; also called CENTA2; source: insect cell/baculovirus, purified, spotted (Invitrogen Protoarray v4.0)
B13: Chromosome 9 open reading frame 32 (natural protein, human, UniProt Q9BV86 1-223, looked up)
chain: MTSEVIEDEKQFYSKAKTYWKQIPPTVDGMLGGYGHISSIDINSSRKFLQRFLREGPNKTGTSCALDCGAGIGRITKRLLLPLFREVDMVDITEDFLVQAKTYLGEEGKRVRNYFCCGLQDFTPEPDSYDVIWIQWVIGHLTDQHLAEFLRRCKGSLRPNGIIVIKDNMAQEGVILDDVDSSVCRDLDVVRRIICSAGLSLLAEERQENLPDEIYHVYSFALR
notes: Chromosome 9 open reading frame 32, human; also called C9ORF32; source: insect cell/baculovirus, purified, spotted (Invitrogen Protoarray v4.0)
B14: Ring finger protein 7 (sensitive to apoptosis gene, SAG) (natural protein, human, UniProt Q9UBF6-1 1-113, looked up)
chain: MADVEDGEETCALASHSGSSGSKSGGDKMFSLKKWNAVAMWSWDVECDTCAICRVQVMDACLRCQAENKQEDCVVVWGECNHSFHNCCMSLWVKQNNRCPLCQQDWVVQRIGK
notes: Ring finger protein 7 (sensitive to apoptosis gene, SAG), human; also called RNF7; source: insect cell/baculovirus, purified, spotted (Invitrogen Protoarray v4.0)
B15: Leupaxin (natural protein, human, UniProt O60711-1 1-386, looked up)
chain: MEELDALLEELERSTLQDSDEYSNPAPLPLDQHSRKETNLDETSEILSIQDNTSPLPAQLVYTTNIQELNVYSEAQEPKESPPPSKTSAAAQLDELMAHLTEMQAKVAVRADAGKKHLPDKQDHKASLDSMLGGLEQELQDLGIATVPKGHCASCQKPIAGKVIHALGQSWHPEHFVCTHCKEEIGSSPFFERSGLAYCPNDYHQLFSPRCAYCAAPILDKVLTAMNQTWHPEHFFCSHCGEVFGAEGFHEKDKKPYCRKDFLAMFSPKCGGCNRPVLENYLSAMDTVWHPECFVCGDCFTSFSTGSFFELDGRPFCELHYHHRRGTLCHGCGQPITGRCISAMGYKFHPEHFVCAFCLTQLSKGIFREQNDKTYCQPCFNKLFPL
notes: Leupaxin, human; also called LPXN; source: insect cell/baculovirus, purified, spotted (Invitrogen Protoarray v4.0)
B16: Myosin light chain 5, regulatory (natural protein, human, UniProt Q02045-1 1-173, looked up)
chain: MASRKTKKKEGGALRAQRASSNVFSNFEQTQIQEFKEAFTLMDQNRDGFIDKEDLKDTYASLGKTNVKDDELDAMLKEASGPINFTMFLNLFGEKLSGTDAEETILNAFKMLDPDGKGKINKEYIKRLLMSQADKMTAEEVDQMFQFASIDVAGNLDYKALSYVITHGEEKEE
notes: Myosin light chain 5, regulatory, human; also called MYL5; source: insect cell/baculovirus, purified, spotted (Invitrogen Protoarray v4.0)
B17: Centrin EF-hand protein 3 (natural protein, human, UniProt O15182 1-167, looked up)
chain: MSLALRSELVVDKTKRKKRRELSEEQKQEIKDAFELFDTDKDEAIDYHELKVAMRALGFDVKKADVLKILKDYDREATGKITFEDFNEVVTDWILERDPHEEILKAFKLFDDDDSGKISLRNLRRVARELGENMSDEELRAMIEEFDKDGDGEINQEEFIAIMTGDI
notes: Centrin EF-hand protein 3, human; also called CETN3; source: insect cell/baculovirus, purified, spotted (Invitrogen Protoarray v4.0)
B18: Odontogenic, ameloblast associated (natural protein, human, UniProt A1E959 16-279, looked up)
chain: APLIPQRLMSASNSNELLLNLNNGQLLPLQLQGPLNSWIPPFSGILQQQQQAQIPGLSQFSLSALDQFAGLLPNQIPLTGEASFAQGAQAGQVDPLQLQTPPQTQPGPSHVMPYVFSFKMPQEQGQMFQYYPVYMVLPWEQPQQTVPRSPQQTRQQQYEEQIPFYAQFGYIPQLAEPAISGGQQQLAFDPQLGTAPEIAVMSTGEEIPYLQKEAINFRHDSAGVFMPSTSPKPSTTNVFTSAVDQTITPELPEEKDKTDSLREP
notes: Odontogenic, ameloblast associated, human; also called ODAM; source: insect cell/baculovirus, purified, spotted (Invitrogen Protoarray v4.0)
B19: Proteasome (prosome, macropain) subunit, alpha type, 3 (natural protein, human, UniProt P25788-1 1-255, looked up)
chain: MSSIGTGYDLSASTFSPDGRVFQVEYAMKAVENSSTAIGIRCKDGVVFGVEKLVLSKLYEEGSNKRLFNVDRHVGMAVAGLLADARSLADIAREEASNFRSNFGYNIPLKHLADRVAMYVHAYTLYSAVRPFGCSFMLGSYSVNDGAQLYMIDPSGVSYGYWGCAIGKARQAAKTEIEKLQMKEMTCRDIVKEVAKIIYIVHDEVKDKAFELELSWVGELTNGRHEIVPKDIREEAEKYAKESLKEEDESDDDNM
notes: Proteasome (prosome, macropain) subunit, alpha type, 3, human; also called PSMA3; source: insect cell/baculovirus, purified, spotted (Invitrogen Protoarray v4.0)
B20: Arginine vasopressin-induced 1 (natural protein, human, UniProt Q5T686 1-147, looked up)
chain: MGTPASVVSEPPPWQAPIEARGRKQASANIFQDAELLQIQALFQRSGDQLAEERAQIIWECAGDHRVAEALKRLRRKRPPRQKPLGHSLHHCSRLRILEPHSALANPQSATETASSEQYLHSRKKSARIRRNWRKSGPTSYLHQIRH
notes: Arginine vasopressin-induced 1, human; also called AVPI1; source: insect cell/baculovirus, purified, spotted (Invitrogen Protoarray v4.0)
B21: Pleckstrin homology domain containing, family J member 1 (natural protein, human, UniProt Q9NW61 1-149, looked up)
chain: MRYNEKELQALSRQPAEMAAELGMRGPKKGSVLKRRLVKLVVNFLFYFRTDEAEPVGALLLERCRVVREEPGTFSISFIEDPERKYHFECSSEEQCQEWMEALRRASYEFMRRSLIFYRNEIRKVTGKDPLEQFGISEEARFQLSGLQA
notes: Pleckstrin homology domain containing, family J member 1, human; also called PLEKHJ1; source: insect cell/baculovirus, purified, spotted (Invitrogen Protoarray v4.0)

Target: T1, NEMO (NF-κB essential modulator), tag-free, biotinylated (human, UniProt Q9Y6K9 1-419, biotin (in vitro biotinylation kit, biotin:NEMO molar ratio 9:1))
T1 construct: NEMO, NF-κB essential modulator, human, 48 kDa; also called biotinylated NEMO; biotin-NEMO; source: E. coli BL21(DE3), purified (glutathione sepharose), GST removed with thrombin, biotinylated in vitro
Assay: peptide or protein array; Invitrogen Protoarray v4.0, about 8,400 human proteins spotted on nitrocellulose-coated glass slides; 10 µg biotinylated tag-free NEMO in 120 µl probing buffer (PBS, 0.5 mM DTT, 5 mM MgCl2, 5% glycerol, 0.05% Triton X-100), 4°C, 1.5 h; bound NEMO detected with labelled streptavidin; hits Z-score > 3, hits of the biotin-GST control array subtracted
Conditions: both partners purified

Row | Binder | binding result
1 | B1 | binds
2 | B2 | binds
3 | B3 | binds
4 | B4 | binds
5 | B5 | binds
6 | B6 | binds
7 | B7 | binds
8 | B8 | binds
9 | B9 | binds
10 | B10 | binds
11 | B11 | binds
12 | B12 | binds
13 | B13 | binds
14 | B14 | binds
15 | B15 | binds
16 | B16 | binds
17 | B17 | binds
18 | B18 | binds
19 | B19 | binds
20 | B20 | binds
21 | B21 | binds
